1 substance from patent publication US20260035456A1 can be followed below.

This test deals with CRLR/RAMP3 (human).

“hADM(22-52) (from UniProt P35318) (peptide)”: the IC50 (read off the curve) came to 100 µg/mL.
